Results as given in patent US20230250190A1 (published 2023).
Where a chain is given by its changes, count along the chain named.

Assays:
Test in all cases: glycopeptide array
[1] = molecular target: T1, T4 (Tn-MUC1) (PAPGSTAPPAHGVT(α-GalNAc)SAPDTRPAPG-OH)
T1 peptide: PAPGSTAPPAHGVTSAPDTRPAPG

[2] = molecular target: T2, T9 (Tn-MUC1) (PAPGSTAPPAHGVT(α-GalNAc)S(α-GalNAc)APDTRPAPG-OH)
T2 peptide: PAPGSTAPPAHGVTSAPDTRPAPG

[3] = molecular target: T3, T11 (Tn-MUC1) (PAPGSTAPPAHGVT(α-GalNAc)SAPDT(α-GalNAc)RPAPG-OH)
T3 peptide: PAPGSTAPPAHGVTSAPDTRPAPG

[4] = molecular target: T4, T8 (Tn-MUC1) (PAPGST(α-GalNAc)APPAHGVTSAPDT(α-GalNAc)RPAPG-OH)
T4 peptide: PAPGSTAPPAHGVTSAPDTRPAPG

B1: 17 (antibody, V domains shown)
VH: QVQLVQSGAEVKKPGASVRVSCKASGYPFINYYIQWVRQAPGQGLEWMGVVNPYDGSTNYAQKFQGRVSITRDASTSTVFMELNSLRSEDTAVYYCARDSMLGHVIFDFWGQGTLVTVSS
In the case of B1, the EC50 [1] is reported as 0.098 µg/mL, the EC50 [2] is reported as 0.102 µg/mL and the EC50 [3] is reported as 0.126 µg/mL. It also gave an EC50 [4] of 0.104 µg/mL.

B2: 142 (antibody, V domains shown)
VH: B1 VH with R19M, V20L, P28I, I30T, N31S, A74T
For B2, the EC50 [1] was 0.089 µg/mL, the EC50 [2] was 0.091 µg/mL and the EC50 [3] was 0.126 µg/mL. The EC50 [4] was 0.108 µg/mL.

B3: 98 (antibody, V domains shown)
VH: QVQLVQSGAEVKKPGASVKVSCKASGYTFTSYYIQWLRQAPGQGLEWMGVINPTGGATNYAQKFQGRVTMTRETSTSMVHMELSSLRSEDTAVYYCARDYMRGYVVFDYWGQGTLVTVSS
Binder B3 has an EC50 [1] of 0.116 µg/mL, an EC50 [2] of 0.102 µg/mL and an EC50 [3] of 0.395 µg/mL. It also gave an EC50 [4] of 0.263 µg/mL.

B4: 70 (antibody, V domains shown)
VH: QVQLVQSGAEVKKPGASVKVSCKASGYAFPNYYIHWVRQAPGQGLEWMGVINPYGGSTNYAQKFQGRVTMTRGTSTSTVYLELSSLRSEDTAVYYCARDAMKGDSFFDYWGQGTLVTVSS
In the case of B4, the EC50 [1] is reported as 0.127 µg/mL, the EC50 [2] is reported as 0.151 µg/mL and the EC50 [3] is reported as 0.161 µg/mL. The EC50 [4] was 0.149 µg/mL.

B5: 66 (antibody, V domains shown)
VH: QVQLVQSGAEVKKPGASVRVSCKASGYTFTNYYIHWVRQAPGHGLTWMGVINPFDSSTDYAQKFQGRVTMTRDTSTSTVYMDLSSLRSEDTAVYYCARDYMRGHVVFDYWGQGTLVTVSS
In the case of B5, the EC50 [1] is reported as 0.11 µg/mL, the EC50 [2] is reported as 0.123 µg/mL and the EC50 [3] is reported as 0.138 µg/mL. The EC50 [4] was 0.123 µg/mL.

B6: 94 (antibody, V domains shown)
VH: B5 VH with A16S, R19K, T30N, N31S, H43Q, S56G, H104Y, Q112R
Work on B6 yielded an EC50 [1] of 0.034 µg/mL, an EC50 [2] of 0.033 µg/mL and an EC50 [3] of 0.04 µg/mL. It also gave an EC50 [4] of 0.033 µg/mL.

B7: 190 (antibody, V domains shown)
VH: B5 VH with R19K, T28A, Y60F, V68L, Y109N
With B7 the EC50 [1] was 0.102 µg/mL, the EC50 [2] was 0.12 µg/mL and the EC50 [3] was 0.122 µg/mL. For the same binder, the EC50 [4] was 0.108 µg/mL.

B8: 202 (antibody, V domains shown)
VH: QVQLVQSGAEVKNPGASVKFSCKASGYTFINYYLQWLRQAPGQGLEWMGTINPFDGSTSYAQNFQGRVTMTRDTSSTTVYMELNSLKSEDTAVYYCARDSMIGYVLFDSWGQGTLVTVSS
B8 gave an EC50 [1] of 0.104 µg/mL, an EC50 [2] of 0.119 µg/mL and an EC50 [3] of 0.142 µg/mL. For the same binder, the EC50 [4] was 0.125 µg/mL.

B9: 49 (antibody, V domains shown)
VH: QVQLVESGAEVKKPGASVKVSCKASGYTFTRYYLHWVRQAPGQGLEWMGVINPYGGATNYAQKFQGRVTLTRDTSTSTVYMELNSLRSEDTAVYFCARDAMEGNSYFDHWGPGTLVTVSS
B9 showed an EC50 [1] of 0.102 µg/mL, an EC50 [2] of 0.12 µg/mL and an EC50 [3] of 0.132 µg/mL. For the same binder, the EC50 [4] was 0.124 µg/mL.

B10: 118 (antibody, V domains shown)
VH: QVQLVQSGAEVKKPGASVKVSCKASGYTFTNYYIQWVRQAPGQGLEWMGVINPYDGSTNYAQRFQGKITLTRDTSTTTVYMELSSLGSEDTAVYYCARDYMIGYVVFDYWGQGTMVTVSS
B10 gave an EC50 [1] of 0.097 µg/mL, an EC50 [2] of 0.102 µg/mL and an EC50 [3] of 0.143 µg/mL. For the same binder, the EC50 [4] was 0.142 µg/mL.

B11: 110 (antibody, V domains shown)
VH: B10 VH with V11M, Q35H, R63K, K67R, I68V, G87R, Y109F, M115L
B11 was tested, and the EC50 [1] was 0.127 µg/mL, the EC50 [2] was 0.139 µg/mL and the EC50 [3] was 0.164 µg/mL. For the same binder, the EC50 [4] was 0.153 µg/mL.

B12: 114 (antibody, V domains shown)
VH: B10 VH with V11M, K19T, K67R, I68V, S75T, Y80N, S85G, G87R, Y109F, M115L
B12 showed an EC50 [1] of 0.087 µg/mL, an EC50 [2] of 0.076 µg/mL and an EC50 [3] of 0.09 µg/mL. For the same binder, the EC50 [4] was 0.085 µg/mL.

B13: 182 (antibody, V domains shown)
VH: QVQLVQSGAEVKKPGASVKVSCKASGYSFTYSYIQWVRLAPGRGLEWMGVINPYDGSTDYAQKFQGRVTLTRDTSTTTVYMELSSLTSEDTAVYYCARDFMIGYVVFDYWGQGTLVTVSS
B13 showed an EC50 [1] of 0.093 µg/mL, an EC50 [2] of 0.085 µg/mL and an EC50 [3] of 0.11 µg/mL. The EC50 [4] was 0.098 µg/mL.

B14: 134 (antibody, V domains shown)
VH: QVQLVQSGAEVKKPGASVEVSCKASGYTFINYYIHWVRQAPGQGLEWMGVINPFDGSTNYAQKFQGRVTVTRDTSTSTVFLDLSSLRPEDTAVYYCARDSMIGYVLFDYWGQGTLVTVSS
Binder B14 has an EC50 [1] of 0.11 µg/mL, an EC50 [2] of 0.095 µg/mL and an EC50 [3] of 0.131 µg/mL. The EC50 [4] was 0.113 µg/mL.

B15: 138 (antibody, V domains shown)
VH: B14 VH with E19R, I34L, H35Q, V50T, N59H, V70M, F80Y, L81M, D82E, P88S
With B15 the EC50 [1] was 0.116 µg/mL, the EC50 [2] was 0.096 µg/mL and the EC50 [3] was 0.123 µg/mL. For the same binder, the EC50 [4] was 0.106 µg/mL.

B16: 126 (antibody, V domains shown)
VH: QVQLVQSGAEVKKPGASVKVSCKASGYTFNRYYLHWVRQAPGQGLEWMGVINPYDGSTNYAQKFRGRVTMTRDTSTNTVYMELSSLRSEDTAVYFCARDAMEGDSYFDNWGQGTTVTVSS
With B16 the EC50 [1] was 0.143 µg/mL, the EC50 [2] was 0.153 µg/mL and the EC50 [3] was 0.195 µg/mL. The EC50 [4] was 0.168 µg/mL.

B17: 122 (antibody, V domains shown)
VH: B16 VH with Q1E, V5L, Q6E, L34I, N59D, G66D, V68I, E82D, Q112R, T115L
Binder B17 has an EC50 [1] of 0.108 µg/mL, an EC50 [2] of 0.1 µg/mL and an EC50 [3] of 0.133 µg/mL. The EC50 [4] was 0.121 µg/mL.

B18: 166 (antibody, V domains shown)
VH: B16 VH with Q6E, L34I, Y54S, V68I, T78I, E102G, T115L
Binder B18 has an EC50 [1] of 0.108 µg/mL, an EC50 [2] of 0.095 µg/mL and an EC50 [3] of 1.68 µg/mL. It also gave an EC50 [4] of 1.85 µg/mL.

B19: 186 (antibody, V domains shown)
VH: B16 VH with L34I, V68I, E82D, F107L, Q112R, T115L
Work on B19 yielded an EC50 [1] of 0.118 µg/mL, an EC50 [2] of 0.132 µg/mL and an EC50 [3] of 0.213 µg/mL. The EC50 [4] was 0.203 µg/mL.

B20: 154 (antibody, V domains shown)
VH: QVQLVQSGAEVKKSGASVKVSCKASGYIFTSYYIQWVRQAPGQGLEWMGVINPFDGSTDYAQKFQGRVTVTRDTSTTTVFMELSSLRSEDTAVYYCARDNMLGYVLFDYWGQGTLVTVSS
For B20, the EC50 [1] was 0.13 µg/mL, the EC50 [2] was 0.106 µg/mL and the EC50 [3] was 0.196 µg/mL. The EC50 [4] was 0.162 µg/mL.

B21: 158 (antibody, V domains shown)
VH: B20 VH with S14P, I28T, I34M, Q35H, D59N, S75A, E82D
B21 gave an EC50 [1] of 0.095 µg/mL, an EC50 [2] of 0.088 µg/mL and an EC50 [3] of 0.235 µg/mL. The EC50 [4] was 0.242 µg/mL.

B22: 21 (antibody, V domains shown)
VH: QVQLVQSGAEVRKPGASVKFSCKASGYSFTHYYVHWVRQAPGQGLEWMGVINPFDSSTNYARKFQGRVTMTRDTSTTTVYMDLSSLRSEDTAVYFCARDAMEGDSYFDYWGQGTLVTVSS
B22 showed an EC50 [1] of 0.051 µg/mL, an EC50 [2] of 0.058 µg/mL and an EC50 [3] of 0.071 µg/mL. For the same binder, the EC50 [4] was 0.061 µg/mL.

B23: 130 (antibody, V domains shown)
VH: QVQLVQSGAEVKKPGASVRVSCKASGYTFINYYLQWVRQAPGQGLEWMGTINPFDGSTHYAQKFQGRVTLTRDTSTSTVYMELNSLRSDDTAVYYCARDYMIGYVLFDYWGQGTLVTVSS
B23 showed an EC50 [1] of 0.125 µg/mL, an EC50 [2] of 0.117 µg/mL and an EC50 [3] of 0.14 µg/mL. The EC50 [4] was 0.116 µg/mL.

B24: 53 (antibody, V domains shown)
VH: QVQLVQSGAEVKKPGASMTVSCKTSGYTFISYYIHWLRQAPGQGLEWLGVINPFGGATNYAQKFQGRVTMTRDTSTITVYMELSSLRSEDTAVYYCARDAMGGDSHFDFWGQGTLVTVSS
B24 showed an EC50 [1] of 0.112 µg/mL, an EC50 [2] of 0.126 µg/mL and an EC50 [3] of 0.131 µg/mL. It also gave an EC50 [4] of 0.122 µg/mL.

B25: 41 (antibody, V domains shown)
VH: B24 VH with K13E, V20L, Y32N, F109Y
With B25 the EC50 [1] was 0.1 µg/mL, the EC50 [2] was 0.113 µg/mL and the EC50 [3] was 0.134 µg/mL. It also gave an EC50 [4] of 0.114 µg/mL.

B26: 62 (antibody, V domains shown)
VH: QVQLVESGAEVKKPGASVKVSCKASGYSFTSYYIQWVRQAPGQGLEWLAVINPIDGSTNYAQKFQGRVTVTRDTSTSTVYMELSSLRSEDTAVYYCARDYMRGFVVFDYWGQGTLVTVSS
Binder B26 has an EC50 [1] of 0.042 µg/mL, an EC50 [2] of 0.045 µg/mL and an EC50 [3] of 0.097 µg/mL. The EC50 [4] was 0.07 µg/mL.
